Measured values taken from paper PMC3894356.

Legend:
[1] = target: human C-domain ACE (tACEΔ36-g13sol) R186H (human)
[2] = target: human C-domain ACE (tACEΔ36-g13sol) R522K (human)
[3] = target: human C-domain ACE (tACEΔ36-g13sol) R522Q (human)
[4] = target: human tACEΔ36-g13sol (C-domain of angiotensin-I-converting enzyme) (human)

Km of angiotensin I cleavage, ITC kinetic assay (progress curve), 37 °C, 0 mM NaCl, 50 mM TAPSO pH 7.5, 10 μM ZnSO4 [1]: 0.085 mM
Km of angiotensin I cleavage, ITC kinetic assay (progress curve), 37 °C, 20 mM NaCl, 50 mM TAPSO pH 7.5, 10 μM ZnSO4 [1]: 0.095 mM
Km of angiotensin I cleavage, ITC kinetic assay (progress curve), 37 °C, 0 mM NaCl, 50 mM TAPSO pH 7.5, 10 μM ZnSO4 [2]: 0.13 mM
Km of angiotensin I cleavage, ITC kinetic assay (progress curve), 37 °C, 20 mM NaCl, 50 mM TAPSO pH 7.5, 10 μM ZnSO4 [2]: 0.119 mM
Km of angiotensin I cleavage, ITC kinetic assay (progress curve), 37 °C, 0 mM NaCl, 50 mM TAPSO pH 7.5, 10 μM ZnSO4 [3]: 0.092 mM
Km of angiotensin I cleavage, ITC kinetic assay (progress curve), 37 °C, 20 mM NaCl, 50 mM TAPSO pH 7.5, 10 μM ZnSO4 [3]: 0.077 mM
Km of angiotensin I cleavage, ITC kinetic assay (progress curve), 37 °C, 0 mM NaCl, 50 mM TAPSO pH 7.5, 10 μM ZnSO4 [4]: 0.049 mM
Km of angiotensin I cleavage, ITC kinetic assay (progress curve), 37 °C, 20 mM NaCl, 50 mM TAPSO pH 7.5, 10 μM ZnSO4 [4]: 0.036 mM
Binder: DRVYIHPFHL [Angiotensin I (Asp-Arg-Val-Tyr-Ile-His-Pro-Phe-His-Leu)]
